From US20110142842A1 (MEDINNOVA, published 2011)

Target: HLA-A*0201 (human, UniProt A*02:01)
Assay: REVEAL MHC binding assay (ProImmune)

Row | Binder | % Pass/fail control
1 | FLYIGIITI [Peptide ID 4 FLYIGIITI (CD53)] | 136 % of pass/fail control
2 | RLFEQVMRI [Peptide ID 43 RLFEQVMRI (MPO)] | 192 % of pass/fail control
3 | ILTALFLRV [Peptide ID 61 ILTALFLRV (TCR_TV)] | 159 % of pass/fail control
4 | IMSDSNYVV [Peptide ID 65 IMSDSNYVV (FLT3)] | 220 % of pass/fail control
5 | LLAEVTLAI [Peptide ID 47 LLAEVTLAI (CD53)] | 199 % of pass/fail control
6 | LIQPFMFRL [Peptide ID 84 LIQPFMFRL (MPO)] | 311 % of pass/fail control
7 | KMAEAYSEI [Peptide ID 46 KMAEAYSEI (TCR_TV)] | 200 % of pass/fail control
8 | VLLVVLLVV [Peptide ID 90 VLLVVLLVV (CD5)] | 71.5 % of pass/fail control
9 | NVAELLHQV [Peptide ID 101 NVAELLHQV (ZAP-70)] | 200 % of pass/fail control
10 | VLTPAQLNV [Peptide ID 44 VLTPAQLNV (MPO)] | 175 % of pass/fail control
11 | VLWPRACWT [Peptide ID 100 VLWPRACWT (CD50)] | 139 % of pass/fail control
12 | GMVFSLLQV [Peptide ID 99 GMVFSLLQV (CD127)] | 175 % of pass/fail control
13 | LMSFFILLL [Peptide ID 104 LMSFFILLL (CD53)] | 161 % of pass/fail control
14 | GLMATPAKL [Peptide ID 77 GLMATPAKL (MPO)] | 218 % of pass/fail control
15 | LLLTISLLV [Peptide ID 81 LLLTISLLV (CD52)] | 250 % of pass/fail control
16 | LLWAGALAM [Peptide ID 86 LLWAGALAM (CD33)] | 321 % of pass/fail control
17 | ALARGLPGA [Peptide ID 53 ALARGLPGA (CD7)] | 215 % of pass/fail control
18 | NLEEDAYWV [Peptide ID 57 NLEEDAYWV (CD11a)] | 64.9 % of pass/fail control
19 | GMDRYLIYV [Peptide ID 9 GMDRYLIYV (CD18)] | 170 % of pass/fail control
20 | SICEGTVEV [Peptide ID 59 SICEGTVEV (CD5)] | 130 % of pass/fail control
21 | LLLTNTFGA [Peptide ID 92 LLLTNTFGA (CD11a)] | 196 % of pass/fail control
22 | LLEGNLVTL [Peptide ID 76 LLEGNLVTL (CD64)] | 173 % of pass/fail control

Row | Binder | % Pass/fail control
23 | LLIHNNFGV [Peptide ID 42 LLIHNNFGV (CD53)] | 191 % of pass/fail control
24 | WLQAQKVQV [Peptide ID 63 WLQAQKVQV (TdT)] | 190 % of pass/fail control
25 | LMIPAGIYA [Peptide ID 40 LMIPAGIYA (CD20)] | 142 % of pass/fail control
26 | KLMSPKLYV [Peptide ID 55 KLMSPKLYV (CD19)] | 232 % of pass/fail control
27 | GLYQGLSTA [Peptide ID 41 GLYQGLSTA (TCR_TV)] | 107 % of pass/fail control
28 | TLWQLVEYL [Peptide ID 97 TLWQLVEYL (ZAP-70)] | 198 % of pass/fail control
29 | YISRDTCIV [Peptide ID 69 YISRDTCIV (HA-2)] | 133 % of pass/fail control
30 | SMSEEVTYA [Peptide ID 56 SMSEEVTYA (CLL-1)] | 158 % of pass/fail control
31 | ILYPINILI [Peptide ID 48 ILYPINILI (CD11a)] | 214 % of pass/fail control
32 | FLLGLGLGV [Peptide ID 8 FLLGLGLGV (CD7)] | 202 % of pass/fail control
33 | LMGTLIAKV [Peptide ID 83 LMGTLIAKV (HA-1)] | 316 % of pass/fail control
34 | LVAPRFLEV [Peptide ID 85 LVAPRFLEV (CD50)] | 340 % of pass/fail control
35 | LLLSGAARA [Peptide ID 51 LLLSGAARA (PR3)] | 178 % of pass/fail control
36 | KMIMNSLSL [Peptide ID 96 KMIMNSLSL (CD20)] | 213 % of pass/fail control
37 | ELLDVSWLI [Peptide ID 74 ELLDVSWLI (TdT)] | 220 % of pass/fail control
38 | GLADVAVGA [Peptide ID 64 GLADVAVGA (CD11a)] | 206 % of pass/fail control
39 | SLFEGIYTI [Peptide ID 6 SLFEGIYTI (FLT3)] | 183 % of pass/fail control
40 | ALASVLLAL [Peptide ID 73 ALASVLLAL (PR3)] | 139 % of pass/fail control
41 | LLLLLIFIV [Peptide ID 58 LLLLLIFIV (CD11a)] | 6.4 % of pass/fail control
42 | KLKDLFTEL [Peptide ID 98 KLKDLFTEL (CD11a)] | 171 % of pass/fail control
43 | FLDCQIHRV [Peptide ID 7 FLDCQIHRV (CD127)] | 224 % of pass/fail control
44 | VLFHNLPSL [Peptide ID 49 VLFHNLPSL (CD53)] | 216 % of pass/fail control

Row | Binder | % Pass/fail control
45 | YLALGDQML [Peptide ID 91 YLALGDQML (CD50)] | 197 % of pass/fail control
46 | VLLRWEEEL [Peptide ID 89 VLLRWEEEL (CD50)] | 184 % of pass/fail control
47 | HLLGPWLLL [Peptide ID 94 HLLGPWLLL (CD22)] | 212 % of pass/fail control
48 | FIYGVILTA [Peptide ID 60 FIYGVILTA (TCR_TV)] | 149 % of pass/fail control
49 | TLPQLFLKV [Peptide ID 72 TLPQLFLKV (FLT3)] | 182 % of pass/fail control
50 | YLAVGIMFL [Peptide ID 5 YLAVGIMFL (CD64)] | 155 % of pass/fail control
51 | FLQDTFPQQ [Peptide ID 70 FLQDTFPQQ (CD127)] | 49.8 % of pass/fail control
52 | GMGWAAFNL [Peptide ID 45 GMGWAAFNL (CD50)] | 193 % of pass/fail control
53 | FLLLTISLL [Peptide ID 88 FLLLTISLL (CD52)] | 302 % of pass/fail control
54 | SMEEAKQLV [Peptide ID 71 SMEEAKQLV (MPO)] | 169 % of pass/fail control
55 | ELSEDSSNV [Peptide ID 103 ELSEDSSNV (CD18)] | 139 % of pass/fail control
56 | RLYQFLLDL [Peptide ID 66 RLYQFLLDL (PU.1)] | 234 % of pass/fail control
57 | LLIILLAEV [Peptide ID 68 LLIILLAEV (CD53)] | 99.2 % of pass/fail control
58 | YLRPGQAAA [Peptide ID 52 YLRPGQAAA (CD18)] | 125 % of pass/fail control
59 | RMPWYHSSL [Peptide ID 95 RMPWYHSSL (ZAP-70)] | 85.6 % of pass/fail control
60 | KLLLALAGV [Peptide ID 67 KLLLALAGV (MPO)] | 216 % of pass/fail control
61 | FMQPLFLVA [Peptide ID 62 FMQPLFLVA (HA-1)] | 215 % of pass/fail control
62 | WLSAAPTSL [Peptide ID 102 WLSAAPTSL (CD33)] | 207 % of pass/fail control
63 | YLIFCLCSL [Peptide ID 50 YLIFCLCSL (CD19)] | 71.2 % of pass/fail control
64 | AIWLFIFNV [Peptide ID 80 AIWLFIFNV (CD19)] | 199 % of pass/fail control
65 | YLGYTVTWL [Peptide ID 93 YLGYTVTWL (CD11a)] | 239 % of pass/fail control
66 | EMDEELHYA [Peptide ID 54 EMDEELHYA (CD33)] | 117 % of pass/fail control
